Test results as given in patent US20020045192A1 (ST JUDE CHILDREN S RESEARCH HOSPITAL, published 2002).

T1: His-tagged mArfN37 (N-terminal 37 amino acids of mouse p19Arf with poly-His tag) (mouse)
T1 construct: Captured on the SPR chip by a covalently linked anti-His antibody; Tag placed first here; also called His-mArfN37; His-tagged mArf37
T1 chain: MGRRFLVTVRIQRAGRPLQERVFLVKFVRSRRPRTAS

B1: 91-105 (human Arf peptide) (peptide)
peptide: Ac-HSHPTRARRCPGGLP-NH2
notes: also called human p14Arf library peptide, residues 91-105
B2: 116-130 (human Arf peptide) (peptide)
peptide: Ac-GAAGRARCLGPSARG-NH2
notes: also called human p14Arf library peptide, residues 116-130
B3: human p14Arf library peptide, residues 6-20 (peptide)
peptide: Ac-LVTLRIRRACGPPRV-NH2
notes: also called second peptide of the human library
B4: human p14Arf library peptide, residues 11-25 (peptide)
peptide: Ac-IRRACGPPRVRVFVV-NH2
notes: also called third peptide of the human library
B5: 21-35 (human Arf peptide) (peptide)
peptide: Ac-RVFVVHIPRLTGEWA-NH2
notes: also called human p14Arf library peptide, residues 21-35
B6: 31-45 (human Arf peptide) (peptide)
peptide: Ac-TGEWAAPGAPAAVAL-NH2
notes: also called human p14Arf library peptide, residues 31-45
B7: human p14Arf library peptide, residues 1-15 (peptide)
peptide: Ac-MVRRFLVTLRIRRAC-NH2
notes: also called first peptide of the human library
B8: 96-110 (human Arf peptide) (peptide)
peptide: Ac-RARRCPGGLPGHAGG-NH2
notes: also called human p14Arf library peptide, residues 96-110
B9: 46-60 (human Arf peptide) (peptide)
peptide: Ac-VLMLLRSQRLGQQPL-NH2
notes: also called human p14Arf library peptide, residues 46-60
B10: 61-75 (human Arf peptide) (peptide)
peptide: Ac-PRRPGHDDGQRPSGG-NH2
notes: also called human p14Arf library peptide, residues 61-75
B11: 81-95 (human Arf peptide) (peptide)
peptide: Ac-RRGAQLRRPRHSHPT-NH2
notes: also called human p14Arf library peptide, residues 81-95
B12: 26-40 (human Arf peptide) (peptide)
peptide: Ac-HIPRLTGEWAAPGAP-NH2
notes: also called human p14Arf library peptide, residues 26-40
B13: 106-120 (human Arf peptide) (peptide)
peptide: Ac-GHAGGAAPGRGAAGR-NH2
notes: also called human p14Arf library peptide, residues 106-120
B14: 71-85 (human Arf peptide) (peptide)
peptide: Ac-RPSGGAAAAPRRGAQ-NH2
notes: also called human p14Arf library peptide, residues 71-85
B15: 66-80 (human Arf peptide) (peptide)
peptide: Ac-HDDGQRPSGGAAAAP-NH2
notes: also called human p14Arf library peptide, residues 66-80
B16: 41-55 (human Arf peptide) (peptide)
peptide: Ac-AAVALVLMLLRSQRL-NH2
notes: also called human p14Arf library peptide, residues 41-55
B17: 76-90 (human Arf peptide) (peptide)
peptide: Ac-AAAAPRRGAQLRRPR-NH2
notes: also called human p14Arf library peptide, residues 76-90
B18: 111-125 (human Arf peptide) (peptide)
peptide: Ac-AAPGRGAAGRARCLG-NH2
notes: also called human p14Arf library peptide, residues 111-125
B19: 56-70 (human Arf peptide) (peptide)
peptide: Ac-GQQPLPRRPGHDDGQ-NH2
notes: also called human p14Arf library peptide, residues 56-70
B20: 101-115 (human Arf peptide) (peptide)
peptide: Ac-PGGLPGHAGGAAPGR-NH2
notes: also called human p14Arf library peptide, residues 101-115
B21: 51-65 (human Arf peptide) (peptide)
peptide: Ac-RSQRLGQQPLPRRPG-NH2
notes: also called human p14Arf library peptide, residues 51-65
B22: 210-224 (Hdm2 peptide) (peptide)
peptide: Ac-SSSSESTGTPSNPDL-NH2
notes: also called Hdm2 library peptide, residues 210-224
B23: 285-299 (Hdm2 peptide) (peptide)
peptide: Ac-ESDTDSFEEDPEISL-NH2
notes: also called Hdm2 library peptide, residues 285-299
B24: 310-324 (Hdm2 peptide) (peptide)
peptide: Ac-EMNPPLPSHCNRCWA-NH2
modifications: cysteine pairing not given here
notes: also called Hdm2 library peptide, residues 310-324
B25: 215-229 (Hdm2 peptide) (peptide)
peptide: Ac-STGTPSNPDLDAGVS-NH2
notes: also called Hdm2 library peptide, residues 215-229
B26: 230-244 (Hdm2 peptide) (peptide)
peptide: Ac-EHSGDWLDQDSVSDQ-NH2
notes: also called Hdm2 library peptide, residues 230-244
B27: 300-314 (Hdm2 peptide) (peptide)
peptide: Ac-ADYWKCTSCNEMNPP-NH2
modifications: cysteine pairing not given here
notes: also called Hdm2 library peptide, residues 300-314
B28: 280-294 (Hdm2 peptide) (peptide)
peptide: Ac-VYQAGESDTDSFEED-NH2
notes: also called Hdm2 library peptide, residues 280-294
B29: 320-334 (Hdm2 peptide) (peptide)
peptide: Ac-NRCWALRENWLPEDK-NH2
notes: also called Hdm2 library peptide, residues 320-334
B30: 265-279 (Hdm2 peptide) (peptide)
peptide: Ac-GQELSDEDDEVYQVT-NH2
notes: also called Hdm2 library peptide, residues 265-279
B31: 325-339 (Hdm2 peptide) (peptide)
peptide: Ac-LRENWLPEDKGKDKG-NH2
notes: also called Hdm2 library peptide, residues 325-339
B32: 220-234 (Hdm2 peptide) (peptide)
peptide: Ac-SNPDLDAGVSEHSGD-NH2
notes: also called Hdm2 library peptide, residues 220-234
B33: 330-344 (Hdm2 peptide) (peptide)
peptide: Ac-LPEDKGKDKGEISEK-NH2
notes: also called Hdm2 library peptide, residues 330-344
B34: 260-274 (Hdm2 peptide) (peptide)
peptide: Ac-SLSEEGQELSDEDDE-NH2
notes: also called Hdm2 library peptide, residues 260-274
B35: 270-284 (Hdm2 peptide) (peptide)
peptide: Ac-DEDDEVYQVTVYQAG-NH2
notes: also called Hdm2 library peptide, residues 270-284
B36: 295-309 (Hdm2 peptide) (peptide)
peptide: Ac-PEISLADYWKCTSCN-NH2
modifications: cysteine pairing not given here
notes: also called Hdm2 library peptide, residues 295-309
B37: 235-249 (Hdm2 peptide) (peptide)
peptide: Ac-WLDQDSVSDQFSVEF-NH2
notes: member of the group m17; also called H1 segment peptide
B38: 245-259 (Hdm2 peptide) (peptide)
peptide: Ac-FSVEFEVESLDSEDY-NH2
notes: as for B37
B39: 335-349 (Hdm2 peptide) (peptide)
peptide: Ac-GKDKGEISEKAKLEN-NH2
notes: also called Hdm2 library peptide, residues 335-349
B40: 240-254 (Hdm2 peptide) (peptide)
peptide: Ac-SVSDQFSVEFEVESL-NH2
notes: member of the group m17; also called Hdm2 library peptide, residues 240-254; H1 segment peptide

target: T2, His-tagged Hdm2 210-304 (human, UniProt Q00987 210-304); assay: SPR, His-tagged Hdm2 210-304 captured by anti-His antibody, peptide injected 10 min, signal minus reference cell [b]
T2 construct: Captured on the C-1 chip by anti-His antibody for the Arf peptide library SPR; Tag placed first here
Method: (§1) Reactive sites remaining on the surface were blocked by reaction with ethanolamine. The His-tagged ligand was attached to the antibody by injecting a 5-10 μg/ml solution of the ligand in 10 mM HEPES, 150 mM NaCl, pH 7.4 (HBS-N buffer, Biacore) at a flow rate of 10 μL/min through the flow cell. A reference cell was prepared similarly except that no His-tagged ligand was added. Binding was measured by flowing the non-His-tagged analyte through the reference and ligand-containing flow cells in sequence. Prior to injection of ligands, the chip surfaces were equilibrated in HBS-N buffer. Changes in the SPR response due to solvent differences and the injection process were monitored by injection of HBS-N buffer alone. Regeneration of the chip surface to remove bound analyte and ligand was accomplished by two 100 μL injections of 10 mM glycine, pH 2.0 through both flow cells. Data reported is the difference in SPR signal between the flow cell containing analyte and the reference cell. Duplicate injections were made and the SPR response values reported are the average of these two injections.
Two libraries of peptides 15 amino acids in length were synthesized based on the sequence of exon 1β of mouse p19^Arf and the entire sequence of human p14^Arf. The sequence for the first peptide in each library corresponded to the first 15 amino acids of the protein sequences. […] This approach yielded two libraries of overlapping peptides spanning mouse p19^Arf residues 1-64 and human p14^Arf residues 1-132. The ability of these peptides to bind Hdm2 fragments was determined using the surface plasmon resonance (SPR) technique with a Biacore 3000 instrument. […] Library peptides were allowed to flow over the Hdm2 surface, or over a control surface lacking an Hdm2 fragment.

T2 sequence (Q00987 210-304): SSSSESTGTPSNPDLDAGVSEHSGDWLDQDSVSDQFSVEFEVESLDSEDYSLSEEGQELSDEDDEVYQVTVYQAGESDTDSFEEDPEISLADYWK

Binder | binding result
B1 | no binding
B2 | no binding
Ac-LRRPRHSHPTRARRC-NH2 [human p14Arf library peptide, residues 86-100 (contains the NoLS RRPR)] | binds
B3 | binds
B4 | binds
B5 | no binding
B6 | no binding
B7 | binds
B8 | no binding
B9 | no binding
B10 | no binding
B11 | no binding
B12 | no binding
B13 | no binding
B14 | no binding
B15 | no binding
B16 | no binding
B17 | no binding
B18 | no binding
B19 | no binding
B20 | no binding
B21 | no binding

Target: T1, His-tagged mArfN37 (N-terminal 37 amino …)
Assay: SPR, His-tagged mArfN37 captured by anti-His antibody, peptide injected, signal minus reference cell [c]
Method: as §1, with “Binding studies were performed using a Biacore 3000 surface plasmon resonance (SPR) instrument (Biacore, Inc.). A Tetra-His™ Antibody (Qiagen, Inc.; Cat. #34670) was covalently attached to a carboxymethylated gold surface (C-1 chip; Biacore, Inc.). The carboxymethyl groups on the surface were activated with N-ethyl-N′-(3-dimethylaminopropyl) carbodiimide (EDC) and N-hydroxysuccinimide (NHS) and the antibody was attached at pH 7.4 in 20 mM sodium phosphate buffer, 150 mM NaCl (PBS). Reactive” for “Reactive”
A similar approach using short synthetic peptides and SPR was used to map the segments of Hdm2 that bind mArfN37 (FIG. 5c). […] The first of these as Arf-binding segment is termed “H1” and the second is termed segment “H2”.

Binder | binding result
B22 | no binding
B23 | no binding
B24 | no binding
B25 | no binding
B26 | no binding
B27 | no binding
B28 | no binding
B29 | no binding
B30 | no binding
B31 | no binding
B32 | no binding
B33 | no binding
B34 | no binding
Ac-SFEEDPEISLADYWK-NH2 [Hdm2 peptide, residues 290-304 of SEQ ID NO:8] | binds
Ac-LPSHCNRCWALRENW-NH2 (cysteine pairing not given here) [315-329 (Hdm2 peptide)] | no binding
B35 | binds
B36 | no binding
Ac-DSEDYSLSEEGQELS-NH2 [255-269 (Hdm2 peptide)] | no binding
B37 | binds
B38 | binds
B39 | no binding
B40 | binds
Ac-EVESLDSEDYSLSEE-NH2 [250-264 (Hdm2 peptide)] | binds
